Assays:
[1] = molecular target: the molecule itself; experiment: SEC-MALS; sample buffer (20 mM K-phosphate pH 6.5, 100 mM KCl, 0.5 mM EDTA); 6 °C for the individual domains; concentration series fitted to a fast monomer–dimer equilibrium; dimer to monomers
[2] = molecular target: the molecule itself; experiment: SEC-MALS; concentration series of full-length TF and full-length mutants alone, 26 °C, sample buffer (20 mM K-phosphate pH 6.5, 100 mM KCl, 0.5 mM EDTA); fit to a fast monomer-dimer equilibrium; dimer to monomers

| Protein | Kd [1] [µM] | Kd [2] [µM] |
| --- | --- | --- |
| RBD (residues 1–117) (domain or fragment, E. coli, UniProt P0A850 1-117, looked up, Trigger Factor, E. coli, residues 1-117 (stop codon at position 118); not shown: His tag, N-terminal, cleaved) MQVSVETTQGLGRRVTITIAADSIETAVKSELVNVAKKVRIDGFRKGKVPMNIVAQRYGASVRQDVLGDLMSRNFIDAIIKEKINPAGAPTYVPGEYKLGEDFTYSVEFEVYPEVEL | ≥ 1500 | – |
| SBD (114–148/247–432) (domain or fragment, E. coli, UniProt P0A850 114-148, looked up, Trigger Factor, E. coli, residues 114-148 (linker part of the SBD); Trigger Factor, E. coli, residues 247-432 (C-terminal part of the SBD); The PPD (149-246) is left out; not shown: His tag, N-terminal, cleaved) EVELQGLEAIEVEKPIVEVTDADVDGMLDTLRKQQELTAEFIKRFGVEDGSVEGLRAEVRKNMERELKSAIRNRVKSQAIEGLVKANDIDVPAALIDSEIDVLRRQAAQRFGGNEKQALELPRELFEEQAKRRVVVGLLLGEVIRTNELKADEERVKGLIEEMASAYEDPKEVIEFYSKNKELMDNMRNVALEEQAVEAVLAKAKVTEKETTFNELMNQQA | > 1000 | – |
| SBD–PPD (114–432) (domain or fragment, E. coli, UniProt P0A850 114-432, looked up, Trigger Factor, E. coli, residues 114-432; also called bi-domain construct SBD–PPD; not shown: His tag, N-terminal, cleaved) EVELQGLEAIEVEKPIVEVTDADVDGMLDTLRKQQATWKEKDGAVEAEDRVTIDFTGSVDGEEFEGGKASDFVLAMGQGRMIPGFEDGIKGHKAGEEFTIDVTFPEEYHAENLKGKAAKFAINLKKVEERELPELTAEFIKRFGVEDGSVEGLRAEVRKNMERELKSAIRNRVKSQAIEGLVKANDIDVPAALIDSEIDVLRRQAAQRFGGNEKQALELPRELFEEQAKRRVVVGLLLGEVIRTNELKADEERVKGLIEEMASAYEDPKEVIEFYSKNKELMDNMRNVALEEQAVEAVLAKAKVTEKETTFNELMNQQA | > 1000 | – |
| TF(3A) with mutation set mutC (M140E) (natural protein, E. coli, UniProt P0A850 1-432, looked up, Trigger Factor, E. coli, residues 1-432, TF(3A) background; not shown: His6, N-terminal, cleaved) MQVSVETTQGLGRRVTITIAADSIETAVKSELVNVAKKVRIDGAAAGKVPMNIVAQRYGASVRQDVLGDLMSRNFIDAIIKEKINPAGAPTYVPGEYKLGEDFTYSVEFEVYPEVELQGLEAIEVEKPIVEVTDADVDGELDTLRKQQATWKEKDGAVEAEDRVTIDFTGSVDGEEFEGGKASDFVLAMGQGRMIPGFEDGIKGHKAGEEFTIDVTFPEEYHAENLKGKAAKFAINLKKVEERELPELTAEFIKRFGVEDGSVEGLRAEVRKNMERELKSAIRNRVKSQAIEGLVKANDIDVPAALIDSEIDVLRRQAAQRFGGNEKQALELPRELFEEQAKRRVVVGLLLGEVIRTNELKADEERVKGLIEEMASAYEDPKEVIEFYSKNKELMDNMRNVALEEQAVEAVLAKAKVTEKETTFNELMNQQA | – | 28 |
| TF(3A) with mutation set mutB (M374A, Y378A, V384A, F387A) (natural protein, E. coli, UniProt P0A850 1-432, looked up, Trigger Factor, E. coli, residues 1-432, TF(3A) background; not shown: His6, N-terminal, cleaved) MQVSVETTQGLGRRVTITIAADSIETAVKSELVNVAKKVRIDGAAAGKVPMNIVAQRYGASVRQDVLGDLMSRNFIDAIIKEKINPAGAPTYVPGEYKLGEDFTYSVEFEVYPEVELQGLEAIEVEKPIVEVTDADVDGMLDTLRKQQATWKEKDGAVEAEDRVTIDFTGSVDGEEFEGGKASDFVLAMGQGRMIPGFEDGIKGHKAGEEFTIDVTFPEEYHAENLKGKAAKFAINLKKVEERELPELTAEFIKRFGVEDGSVEGLRAEVRKNMERELKSAIRNRVKSQAIEGLVKANDIDVPAALIDSEIDVLRRQAAQRFGGNEKQALELPRELFEEQAKRRVVVGLLLGEVIRTNELKADEERVKGLIEEAASAAEDPKEAIEAYSKNKELMDNMRNVALEEQAVEAVLAKAKVTEKETTFNELMNQQA | – | > 1000 |
| TF(3A) with mutation set mutD (R316A, R321A) (natural protein, E. coli, UniProt P0A850 1-432, looked up, Trigger Factor, E. coli, residues 1-432, TF(3A) background; not shown: His6, N-terminal, cleaved) MQVSVETTQGLGRRVTITIAADSIETAVKSELVNVAKKVRIDGAAAGKVPMNIVAQRYGASVRQDVLGDLMSRNFIDAIIKEKINPAGAPTYVPGEYKLGEDFTYSVEFEVYPEVELQGLEAIEVEKPIVEVTDADVDGMLDTLRKQQATWKEKDGAVEAEDRVTIDFTGSVDGEEFEGGKASDFVLAMGQGRMIPGFEDGIKGHKAGEEFTIDVTFPEEYHAENLKGKAAKFAINLKKVEERELPELTAEFIKRFGVEDGSVEGLRAEVRKNMERELKSAIRNRVKSQAIEGLVKANDIDVPAALIDSEIDVLRAQAAQAFGGNEKQALELPRELFEEQAKRRVVVGLLLGEVIRTNELKADEERVKGLIEEMASAYEDPKEVIEFYSKNKELMDNMRNVALEEQAVEAVLAKAKVTEKETTFNELMNQQA | – | 22 |
| TF(3A) with mutation sets mutB + mutD (M374A, Y378A, V384A, F387A, R316A, R321A) (natural protein, E. coli, UniProt P0A850 1-432, looked up, Trigger Factor, E. coli, residues 1-432, TF(3A) background; not shown: His6, N-terminal, cleaved) MQVSVETTQGLGRRVTITIAADSIETAVKSELVNVAKKVRIDGAAAGKVPMNIVAQRYGASVRQDVLGDLMSRNFIDAIIKEKINPAGAPTYVPGEYKLGEDFTYSVEFEVYPEVELQGLEAIEVEKPIVEVTDADVDGMLDTLRKQQATWKEKDGAVEAEDRVTIDFTGSVDGEEFEGGKASDFVLAMGQGRMIPGFEDGIKGHKAGEEFTIDVTFPEEYHAENLKGKAAKFAINLKKVEERELPELTAEFIKRFGVEDGSVEGLRAEVRKNMERELKSAIRNRVKSQAIEGLVKANDIDVPAALIDSEIDVLRAQAAQAFGGNEKQALELPRELFEEQAKRRVVVGLLLGEVIRTNELKADEERVKGLIEEAASAAEDPKEAIEAYSKNKELMDNMRNVALEEQAVEAVLAKAKVTEKETTFNELMNQQA | – | > 1000 |
| TF(3A) with mutation sets mutB + mutC (M374A, Y378A, V384A, F387A, M140E) (natural protein, E. coli, UniProt P0A850 1-432, looked up, Trigger Factor, E. coli, residues 1-432, TF(3A) background; also called mutC + mutB; not shown: His6, N-terminal, cleaved) MQVSVETTQGLGRRVTITIAADSIETAVKSELVNVAKKVRIDGAAAGKVPMNIVAQRYGASVRQDVLGDLMSRNFIDAIIKEKINPAGAPTYVPGEYKLGEDFTYSVEFEVYPEVELQGLEAIEVEKPIVEVTDADVDGELDTLRKQQATWKEKDGAVEAEDRVTIDFTGSVDGEEFEGGKASDFVLAMGQGRMIPGFEDGIKGHKAGEEFTIDVTFPEEYHAENLKGKAAKFAINLKKVEERELPELTAEFIKRFGVEDGSVEGLRAEVRKNMERELKSAIRNRVKSQAIEGLVKANDIDVPAALIDSEIDVLRRQAAQRFGGNEKQALELPRELFEEQAKRRVVVGLLLGEVIRTNELKADEERVKGLIEEAASAAEDPKEAIEAYSKNKELMDNMRNVALEEQAVEAVLAKAKVTEKETTFNELMNQQA | – | > 1000 |
| TF(3A) variant TF(F44A, R45A, K46A) (natural protein, E. coli, UniProt P0A850 1-432, looked up, not shown: His6, N-terminal, cleaved) MQVSVETTQGLGRRVTITIAADSIETAVKSELVNVAKKVRIDGAAAGKVPMNIVAQRYGASVRQDVLGDLMSRNFIDAIIKEKINPAGAPTYVPGEYKLGEDFTYSVEFEVYPEVELQGLEAIEVEKPIVEVTDADVDGMLDTLRKQQATWKEKDGAVEAEDRVTIDFTGSVDGEEFEGGKASDFVLAMGQGRMIPGFEDGIKGHKAGEEFTIDVTFPEEYHAENLKGKAAKFAINLKKVEERELPELTAEFIKRFGVEDGSVEGLRAEVRKNMERELKSAIRNRVKSQAIEGLVKANDIDVPAALIDSEIDVLRRQAAQRFGGNEKQALELPRELFEEQAKRRVVVGLLLGEVIRTNELKADEERVKGLIEEMASAYEDPKEVIEFYSKNKELMDNMRNVALEEQAVEAVLAKAKVTEKETTFNELMNQQA | – | 1.1 |
| TF(3A) with mutation sets mutD + mutC (R316A, R321A, M140E) (natural protein, E. coli, UniProt P0A850 1-432, looked up, Trigger Factor, E. coli, residues 1-432, TF(3A) background; also called mutC + mutD; not shown: His6, N-terminal, cleaved) MQVSVETTQGLGRRVTITIAADSIETAVKSELVNVAKKVRIDGAAAGKVPMNIVAQRYGASVRQDVLGDLMSRNFIDAIIKEKINPAGAPTYVPGEYKLGEDFTYSVEFEVYPEVELQGLEAIEVEKPIVEVTDADVDGELDTLRKQQATWKEKDGAVEAEDRVTIDFTGSVDGEEFEGGKASDFVLAMGQGRMIPGFEDGIKGHKAGEEFTIDVTFPEEYHAENLKGKAAKFAINLKKVEERELPELTAEFIKRFGVEDGSVEGLRAEVRKNMERELKSAIRNRVKSQAIEGLVKANDIDVPAALIDSEIDVLRAQAAQAFGGNEKQALELPRELFEEQAKRRVVVGLLLGEVIRTNELKADEERVKGLIEEMASAYEDPKEVIEFYSKNKELMDNMRNVALEEQAVEAVLAKAKVTEKETTFNELMNQQA | – | 260 |
| PPD (149–249) (domain or fragment, E. coli, UniProt P0A850 149-249, looked up, Trigger Factor, E. coli, residues 149-249; also called peptidyl-prolyl isomerase domain; not shown: His tag, N-terminal, cleaved) ATWKEKDGAVEAEDRVTIDFTGSVDGEEFEGGKASDFVLAMGQGRMIPGFEDGIKGHKAGEEFTIDVTFPEEYHAENLKGKAAKFAINLKKVEERELPELT | > 5000 | – |

From PMC5722895, “The dynamic dimer structure of the chaperone Trigger Factor” (Nature Communications, 2017)
